From IntAct's records for PubMed 8626665

B1: Transcription initiation factor IIA subunit 2 (Homo sapiens), P52657 (parent)
chain: MAYQLYRNTTLGNSLQESLDELIQSQQITPQLALQVLLQFDKAINAALAQRVRNRVNFRGSLNTYRFCDNVWTFVLNDVEFREVTELIKVDKVKIVACDGKNTGSNTTE
B2: Transcription initiation factor IIA subunit 2 (Homo sapiens), P52657 (parent)
chain: B1 chain
partner: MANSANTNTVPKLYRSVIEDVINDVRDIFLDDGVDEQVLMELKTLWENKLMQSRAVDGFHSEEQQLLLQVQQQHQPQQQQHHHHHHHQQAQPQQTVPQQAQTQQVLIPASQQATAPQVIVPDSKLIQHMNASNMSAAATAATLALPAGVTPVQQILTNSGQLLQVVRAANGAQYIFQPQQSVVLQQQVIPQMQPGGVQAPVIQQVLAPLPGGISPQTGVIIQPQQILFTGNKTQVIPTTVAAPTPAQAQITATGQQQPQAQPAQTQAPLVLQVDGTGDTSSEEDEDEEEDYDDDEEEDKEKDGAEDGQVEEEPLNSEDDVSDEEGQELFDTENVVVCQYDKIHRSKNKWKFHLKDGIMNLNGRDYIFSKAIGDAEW

Variants of: B1
Details: with tbp_human TBP

| effect of a mutation on the interaction | Variant |
| --- | --- |
| decreasing interaction | D20A |
| decreasing interaction | Y65A |

Variants of: B2
Details: with tf2aa_human GTF2A1, P52655

| effect of a mutation on the interaction | Variant |
| --- | --- |
| decreasing interaction | E109A |
| decreasing interaction | D41A |
| decreasing interaction | F40A |
| decreasing interaction | K42A |
